Data published in patent US20210071162A1 (CENTRE NATIONAL DE LA RECHERCHE SCIENTIFIQUE, published 2021).

Columns and labels:
[1] = molecular target: the molecule itself; assay: self-assembly of PhTET4 subunits; size-exclusion chromatography and negative stain electron microscopy
Procedure: After the size exclusion chromatography step, 4 μl of PhTET4 at 0.05 mg/ml were deposited onto carbon-coated 400-mesh copper grids. The samples were stained using uranyl acetate 2% and air-dried. Images were taken under low-dose conditions in a T12FEI electron microscope working at 120 kV and with a nominal magnification of 40,000 using an Orius SC1000 CCD camera.
The three-dimensional structure of PhTET4 was assessed by producing the recombinant PhTET4 in E. coll. The cellular extract was clarified by heat shock precipitation and the recombinant protein was purified by ion-exchange and size-exclusion chromatographies. […] The dimensions and the shape of PhTET4 are analogous to the three P. horikoshii tetrahedral TET edifices: PhTET1, PhTET2 and PhTET3.

[2] = molecular target: T1, LGG
T1 chain: LGG

[3] = molecular target: T2, Gly-Gly-pNA
T2 chain: GG

[4] = molecular target: T3, GLM
T3 chain: GLM

[5] = molecular target: T4, GMDSLAFSGGL
T4 chain: GMDSLAFSGGL

B1: PhTET4 (enzyme)
chain: MERIVKILREILEIPSPTGYTKEVMSYLEKFLKENEVNFYYTNKGALIAGNHPKPELVVIAHVDTLGAMVKEILPDGHLAFSRIGGLVLPTFEGEYCTIITRKGKKFRGTLLLRNPSAHVNREVGKKERKEENMYIRLDELVEKREDTEKLGIRPGDFIAFDPKFEYVNGFVKSHFLDDKASVAAILDLIIDMKDELEKYPVAFFFSPYEEVGHGGSAGYPPTTKELLVVDMGVVGEGVSGKETAVSIAAKDTTGPYDYDMTNRLIELAEENNIPYVVDVFPYYGSDGSAALRAGWDFRVALIGPGVHASHGMERTHVKGLLATKELIRAYIKWKG
notes: also called TET protein; protein encoded by PH0737 gene
[1]
  binding result: binds
[2]
  cleavage of the N-terminal residue of the peptide (reverse phase HPLC, N-terminal sequencing of products): no enzymatic activity was detected against peptide that do not start by glycine residue even if a glycine residue is present at P1′ position as demonstrated with the LGG tripeptide
[3]
  enzymatic activity against the chromogenic peptide (released pNA), relative to Gly-pNA: PhTET4 displayed significant activity against this substrate, corresponding to 10% of the total activity exhibited in presence of monoacyl compound Gly-pNA
[4]
  cleavage of the N-terminal residue of the peptide (reverse phase HPLC, N-terminal sequencing of products): PhTET4 does not exert amidolytic activity beyond the N-ter glycine in a peptide context
[5]
  cleavage of the N-terminal residue of the peptide (reverse phase HPLC, N-terminal sequencing of products): PhTET4 does not exert amidolytic activity beyond the N-ter glycine in a peptide context
